Reference: a protein production outcome set (Wang et al. 2014)

Assay: label from the status in PepcDB records

Sequence	protein production
MEVRWCATSDPEQHKCGNMSEAFREAGIQPSLLCVRGTSADHCVQLIAAQEADAITLDGGAIYEAGKEHGLKPVVGEVYDQEVGTSYYAVAVVRRSSHVTIDTLKGVKSCHTGINRTVGWNVPVGYLVESGRLSVMGCDVLKAVSDYFGGSCVPGAGETSYSESLCRLCRGDSSGEGVCDKSPLERYYDYSGAFRCLAEGAGDVAFVKHSTVLENTDGKTLPSWGQALLSQDFELLCRDGSRADVTEWRQCHLARVPAHAVVVRADTDGGLIFRLLNEGQRLFSHEGSSFQMFSSEAYGQKDLLFKDSTSELVPIATQTYEAWLGHEYLHAMKGLLCDPNRLPPYLRWCVLSTPEIQKCGDMAVAFRRQRLKPEIQCVSAKSPQHCMERIQAEQVDAVTLSGEDIYTAGKKYGLVPAAGEHYAPEDSSNSYYVVAVVRRDSSHAFTLDELRGKRSCHAGFGSPAGWDVPVGALIQRGFIRPKDCDVLTAVSEFFNASCVPVNNPKNYPSSLCALCVGDEQGRNKCVGNSQERYYGYRGAFRCLVENAGDVAFVRHTTVFDNTNGHNSEPWAAELRSEDYELLCPNGARAEVSQFAACNLAQIPPHAVMVRPDTNIFTVYGLLDKAQDLFGDDHNKNGFKMFDSSNYHGQDLLFKDATVRAVPVGEKTTYRGWLGLDYVAALEGMSSQQC	failed
MEVSENATTRGSLALVSIILPVHNAEQWLDECLMSVLQQDFEGAMELSVFNDASKDKSRAIIEKWKVKLEDSGISVVIGGHDSPSPRGVGYSKNQAVAQSTGSYLCFLDSDDVMMPQRVRMQYEAAGQHPTSIIGCQVRRDPPDSTERYTRWINHLTSDQLLTQVFTSHGPTVIMPTWFCSRAWFSHVGPFDEGGQGVPEDLLFFYEHLRKGGGVFRVDHSLLLYRYHLYAATHSVLEMTIWTHRVHFLEEQVLPHWKSFTIWNAGKQGRKLYRSLTAASRHKVVAFSDVDENKIRKGFYCYEDSQERPKPKVPILHFQAAQSPFVICVKLDLTGGEFEDNLKSLDLQEGRDFVHFS	failed
MEVSERIIIGNKISKITIIANIALSILKILAGVFGKSSALIADGMHSFSDILSTVVVMLGLKLSEKPADESHPYGHERIEPALTKILAVILLVTALMIFYCGLTTIIGGNYQIPGNITIIAALISIFTKEWMYKYTKKGAEQIESSALLADAWHHRSDAFSSVGTLIGVVGAKLGYPILDPIASIVISLFIAKMAFEIYFKALNQLLDRAADSKTIEEIKKIILSVDGVLEIDVLKTRIHSNKIYVDVEISVDKDLSLIEAHNISENVHSQIESKLKRVKHCMVHVNPYLK	failed
MEVTNGLNLKDTELRLGLPGAQEEQQLELSCVRSNNKRKNNDSTEESAPPPAKTQIVGWPPVRSNRKNNNNKNVSYVKVSMDGAPYLRKIDLKMYKNYPELLKALENMFKFTVGEYSEREGYKGSGFVPTYEDKDGDWMLVGDVPWDMFSSSCQKLRIMKGSEAPTAL	not failed
MEWEIVNLDMTFKVDAPVEEVFRAWTKPSLFKQWFMTTEETNKVAKNQFEINGDWEIIDVREGVEYRAIGTYIDIVSPYKLTFSFKMPQFSELEDIITVEFVDLTGATEVKFNQGIKVPFEGDTNDFEADKTEVKKEMETGYNLMFERLKQLCEG	failed
MEWSLPVDLQEEILSRVPAKSLARWKSTPKQWKGPISIEFLHLLRSTLKFPLLNLHLKSKSIYVTSFTAMVFCYAPPSTKDSRFGIHVQGKPSGFLADEQNKVVVCCKWRSDSINTIYFVGENKHVQVDQRRGDLTLGQSCSFLMNYVPSFVQIQQGTLLAPRT	failed
MEYTVHTPSFRYHDLPYQDCLNKVGTVTLQDYRDDLVALIESLNQPPLLLGHSLGFLVAQMAAKKIEIDGMIFM	failed
MEYYFTAQKLAVGYDNRPLIENIDFSLKRGEILTLIGPNGAGKSTILKSIARQLSLVSGTIYLDKSDVVTMNGNEFAKKMAVVLTDKLKTELMTCYDVVATGRYPYTGRFGVLSDEDKKAVDEAMELVNVSQIKDKDFTKISDGQRQRVMLSRAICQQPEIIVLDEPTSYLDIKYKLEFLSILQRLKRQKNLTVIMSLHELDMAKRVSDHILCIDGRYVDRYGTPEEVFTDQYVSGLFGITAGSFDETGEDLELEKPDGSARIFVIAGGGLGRKSFRSLQRKGIPFATGIIYENDLDYPAAKALSAEIVSARSFEPVDDALIEKAKELIDACEGVICDRTEFGTYEQFNSRLYEYAVSTGKIIKIPFLEEQLAQL	failed
MFAGSIPMYIRVVSITAQSKLQFDMTVTYFENVWSPKVISLGAISAEFVQSNENSGMYIIHYPDKQTAISVFDKIKPEVDEVRTQNRIQITEGKRLFRVD	not failed
MFAMLHVIVDTNWLLLAFSALMFDLPRYTFSLLSWSLVGIFRNSRPGDRWVEAAVSVIIPTFNGGSGLAPTIASLRQQTLSPLEIIIVDDGSTDDTRAVANRARQDGLVDMVICHGTRCGRSAAINAAARFASGDLIFTIDADTVLERDAIARLAHAFNDPRVAGACGNIAIRNESASLWTGLQSVEYMMSISAGKSILDVVGAIACLSGACSMYRRDVFARQGGLDVGPGEDLEFSLRLRRLGYRVRFVPDAWAETDGPVAAVGLLRQRARWDRDALRIRSMMYGELSFFHPLERLPDTLQRLDFIVFDLIPTMSLPFYSMYIVILFGPAHAILFIGAIYFLLLWISLFNMALAFVLFSRSPSFFSLGAAFIFPFYQGIYMKCARFVSYSSEILFATSRRDDYVPPRVRRALFADEVGKVVS	failed
MFAYTLTTLTLCCTSILITSYISKRKGTLMEYMVFIMSFSMSIGLSIGFYLGILFKGELLYSTLLAILISGFIGFLIGLRFHLYTALEGMFSGLMASMMGAMITEMLNAQQAHSILFISLLLTITITMSCVIQLLSENFSTFIQQRFLLLLSISVVIIVAVFTTFPDHTPAPSPGHNQHIH	failed
MFDIGVNLTSSQFAKDRDDVVACAFDAGVNGLLITGTNLRESQQAQKLARQYSSCWSTAGVHPHDSSQWQAATEEAIIELAAQPEVVAIGECGLDFNRNFSTPEEQERAFVAQLRIAADLNMPVFMHCRDAHERFMTLLEPWLDKLPGAVLHCFTGTREEMQACVAHGIYIGITGWVCDERRGLELRELLPLIPAEKLLIETDAPYLLPRDLTPKPSSRRNEPAHLPHILQRIAHWRGEDAAWLAATTDANVKTLFGIAF	not failed
MFEFISLDRDGVLYIAAFLVIIRSVSLYIFSKGNNVDKANVNILMLVFFLLFMTASSLSSWPLIYFLALFFVGSIISFTWFTYSGMITPFGSGLTAISTTLLLCLLSYMLSFYETFVEHGFQAIFIAIFLFSIITSIYSFYYLPFSQNSLFYLNFKRNKKVMHIQSVSEVYSPKVTIHLPCYSEPPEIVINTLNSISALDYDNYEVIVIDNNTRDETLWKPVEKHCSMLGEKFRFYHVPVLAGAKAGALNYALKITSSDTELIAVIDADYITEPDFIRRYVKIFKDENVGFVQTSHDYYNHQSSPVMEGAYYFWTLFHKIELPSYTEINAAFTVGTMCILRRNILEKVGGWDETALTEDSELAVRMHAQGYIGYVFADTVGRGLIPTTFSDMKKQQVRWTAGPVQQLLKHWRLYFGFSSENKMTLNQRVMEIRHSTSRIKPVFSLISLHIMVVVSFFLLSGNVYLSIPYEFIVFFLCMLISTFIEKMAYFRLFNCSGILPVFYHGIMARALEWTFIYGVISSLFGFSMKWDRTNKFENSKSIKRAFLASKIEVVMSVFFFLYSFFLLSGNHSGYNDFVFLTGIACLVKGIGFLCALLVASLLENNLRILEAP	failed
MFELLFLLLPIAALYGWYIGRLSVKKEQESINNKFSRDYVTGLNFLLSNQQEKAVDLFLSMLQKQESENQIATESQFEAELTLGNLFRSRGEVDRALRIHQALDSSLNYSIEQKLLAKQQLAKDFMAAGFYDRAENYYILLLDEPEFAVNSLTQLMVLYQKTNEWKKAINVAEKLLKIDPKTDRIPLSHYYCEYAQAIKSEDEDLYLRLLGKALEYSPLCTRASMLLGDYYLAQGQFSQALTHFEHILVQDPDYISEVLHNIKTCHAALHDFINYELFLIRSNQVKHNSSVDIALAELIEQKDGLIAAHSKLYQQLSKYPSMLIFHRFIYYQINEAEEGSAKESLVLLHNMVGARIKKSFQYRCLNCGYQSYRLSWYCPSCRQWEQIKPINGIDSY	failed
MFELWYIHISLAIVSAIFSILIFLEFKSLRKEFHGKLSGVLLLISVLLLFESVVNAVAFSMWSYGHDPVYVYPSMAIAIVSTSVIILFYYYVAKV	failed
MFEMGIQELVKTIDTNINHMISLSVLNLAQLGIKYGIFKAVASRPSYEELLSQIPVPNKPLLKKLIEHLKALGIIEETPSNLILNGFSYVLKFPKEDYMLLLSDWIPIWEEIYKMVDFALISYSHPYVLMDFDKDADFWDIRLSSSFNKTYRDAIINLGEIREDSYILDLGCGSVSPAYFGKFISEDGKYVGVDYSPGLLEIARERVERNGLPAELKEMDVSLIRTRSKYDVAIMSFLLEYVRDREEVLGKVLEALDSGGKLIIVEAFRDEFENIQAMEFFESLNRSFVGYPAKAEIKKAILREGFDVSFEDYGKSILVVRKL	failed
MFENTLVVIKGAGDIATGVGRRLFRCGFPLVMTEQLQPTPVRRTVAFAEAVYKGETTVEGVTARLIEDPAHVYSTLREGHIPIIPDPEAHIIRVLNPKVVVDAILAKKNLGTAKSNAPIVIGLGPGFTAGKDVHAVIETNRGHNLGRVILNGSAEPNTGVPGVVNGYGSERVLRSPADGAIVPIREIGDFLLKGDVIAVVEGEPVVAPFDGTLRGLVHEKVTVFKGMKIGDVDPRASREHCYTISDKALAISGGVLEAILSHRHVITE	failed
MFERFDSDRSRYASLGVVSSLPSGLIDSIWLIIDLNLKGVIPLNDLLHFDLLNNNGKVTVHFSQENSSVEMAIDLPFSYSTAYPSRIFAFDDGHRETILLPAEMLES	not failed
MFERFTEKAIKVITLAQEEARRLGYNFFGTEHILLSLIGEGTGIAAKVLKSMGINLKDARVEVEKIIGRGSGFVVVEIPFTPRKACAGFVTRGSSTTRHKGIAVRVLEILGADPSNIRTQVNAPILVNSQQALVAEVMETATWQVGNTRRGKLDPVVGRQPQIKRVVQILARRTCRNNACLIGKPGVGKRAIAEGIAQRIASGDVPETIKGKMNVAGNCGWNEIRWRSRGKIEEVYGQSDDIILFIDEMHLLIGAGAVEGAIDAANILKPALERCELQYRKHIENDPALERRFQPVKVPEPTVEEAIQITTVLAKGKEVNKADNEAEEGRPTVTEADNEAE	failed
MFESLNKVINGYGLISGFAIIGVTMAVSYWLSARLTRGRLHGSAIAIFLGLVLSYVGGVATGGQKGLVDVPLMSGIGLLGGAMLRDFAIVATAFGVNVEELRRAGVSGVVSLFLGVGSSFVAGVAVAMAFGYTDAVSLTTIGAGAVTYIVGPVTGAALGASSEVMALSIAAGLVKAILVMVLTPFVAPYIGLNNPRTAVIFGGLMGTSSGVAGGLAATDPKLVPYGCLTAAFYTAIGCLLGPSLLYFSVRGLVG	failed
MFFKQFYDKHLSQASYLIGCQKTGEAMIIDPIRDLSSYIRVADEEGLTITHAAETHIHADFASGIRDVAIKLNANIYVSGESDDTLGYKNMPNHTHFVQHNDDIYVGNIKLKVLHTPGHTPESISFLLTDEGAGAQVPMGLFSGDFIFVGDIGRPDLLEKAVKVEGSSEIGAKQMFKSIESIKDLPDYIQIWPGHGAGSPCGKSLGAIPTSTLGYEKQTNWAFSENNEATFIDKLISDQPAPPHHFAQMKKINQFGMNLYQPYTVYPATNTNRLTFDLRSKEAYHGGHIEGTINIPYDKNFINQIGWYLNYDQEINLIGDYHLVSKATHTLQLIGYDDIAGYQLPQSKIQTRSIHSEDITGNESHILDVRNDNEWNNGHLSQAVHVPHGKLLETDLPFNKNDVIYVHCQSGIRSSIAIGILEHKGYHNIINVNEGYKDIQLS	not failed
